B1: LS-15 (dsRNA)
RNA 1: GGUGAAGGGCGUGAUGAGCGAGAAGUCCGGCUUCGGCGUGAUGAGCCCUGUGCCGGCCCUGGGCGUGAUGAGCAUUCCACC
RNA 2: GGACUUCUCGCUCUGACCCUUCACCGGUGGAAUGCUCUGACCCAGGGCCGGCACAGGGCUCUGACCGAAGCC
B2: LS-26 (dsRNA)
RNA 1: GGCGCAAAGGCCUGUAAUCGGCGUGAUGAGCCAUGCGAGGAGGAAAUGAAGUCCAAUGGCGUGAUGAGCCUCUACGGGAAGAGCAUGCCCAUCCGGGCGUGAUGAGCGUAGCAA
RNA 2: GGCCUUUGCGCCUUGCUACGCUCUGACCCGGAUGGGCAUGCUCUUCCCGUAGAGGCUCUGACCAUUGGACUUCAUUUCCUCCUCGCAUGGCUCUGACCGAUUACA
B3: LS-48 (dsRNA)
RNA 1: GGACGAGCUGUACACCAUGGUGACCGCCGCCGGGCGUGAUGAGCUCCAAGGACCCCAACGAGAAGCGCGAUCACAUGAUCUACUUCGGCUUCGGCGUGAUGAGCCCUGUGCUGCUGCCCGAUAACCACUACCUGCCAUCACCCACGGCCCUGGGCGUGAUGAGCAUUCCACCCAGAGCGC
RNA 2: GGUGUACAGCUCGUCCGCGCUCUGGGUGGAAUGCUCUGACCCAGGGCCGUGGGUGAUGGCAGGUAGUGGUUAUCGGGCAGCAGCACAGGGCUCUGACCGAAGCCGAAGUAGAUCAUGUGAUCGCGCUUCUCGUUGGGGUCCUUGGAGCUCUGACCCGGCGGCGGUCACCAU
B4: LS-26-siGFP (dsRNA)
RNA 1: GGCAUCAAGGUGAACUUCAAGAUCCGCAAAGGCCUGUAAUCGGCGUGAUGAGCCAUGCGAGGA
RNA 2: GGCAUCAAGGUGAACUUCAAGAUCCGGAAAUGAAGUCCAAUGGCGUGAUGAGCCUCUACGGGA
RNA 3: GGCAUCAAGGUGAACUUCAAGAUCCAGAGCAUGCCCAUCCGGGCGUGAUGAGCGUAGCAAGGC
RNA 4: B2 RNA 2
RNA 5: GGAUCUUGAAGUUCACCUUGAUGCCAG

What was measured:
L7Ae-Affibody (L7Ae-AFB) [1] = target: T1, L7Ae-Affibody (L7Ae-AFB) (UniProt O29494 O29494:1-119); assay: EMSA; conditions: chain copies: 3 per LS-RNA; loop of double-stranded RNA with three K-turn motifs
Description: (§1) Subsequently, according to electrophoretic mobility shift assay (EMSA), the interaction of L7Ae with the LS-RNA was analyzed. After completion of electrophoresis using polyacrylamide gel, the polyacrylamide gel was stained with SYBR Green I and II (Lonza), and formation of an RNA-protein complex was then observed. As a result, it was confirmed that a triangular structure was formed by the interaction of the LS-RNA with L7Ae, as expected, in all of the LS-RNAs (FIG. 2).
(§2) The function to recognize specific cancer cells was imparted to Tri-RNP. Specifically, a protein (L7Ae-AFB), in which the N-terminus of an affibody_{ZHER2:342} peptide (SEQ ID NOS: 25 and 26) was fused with the C-terminus of L7Ae via […] (SEQ ID NOS: 27 and 28), was prepared by transfecting a plasmid into Escherichia coli in accordance with Ohno, H., et al., as described above. This L7Ae-AFB was added to LS-RNA to construct RNP (Tri-AFB, FIG. 9A). When LS-26 was used as RNA (Tri-26-AFB), a triangular structure was found by HS-AFM, and it was also confirmed that a substance assumed as AFB was added to each vertex (FIG. 9B). Moreover, according to EMSA, it was confirmed that L7Ae-AFB binds to a K-turn motif, as with Tri-26 (FIG. 10).

L7Ae [2] = target: T2, L7Ae (UniProt O29494 O29494:1-119); assay: EMSA; 150 KCl (unit printed ml), 1.5 mM MgCl2, 20 mM HEPES-KOH pH 7.5; triangle also by HS-AFM; conditions: tags: expressed from pET-28(+) (Novagen) in E. coli Rosetta; chain copies: 3 per LS-RNA; loop of double-stranded RNA with three K-turn motifs
Description: as §1

L7Ae-Affibody (L7Ae-AFB) [3] = target: T1, L7Ae-Affibody (L7Ae-AFB); assay: EMSA; triangle also by HS-AFM; conditions: chain copies: 3 per LS-RNA; loop of double-stranded RNA with three K-turn motifs
Description: as §1, §2

L7Ae [4] = target: T2, L7Ae; assay: EMSA; triangle also by HS-AFM; conditions: tags: expressed from pET-28(+) (Novagen) in E. coli Rosetta; chain copies: 3 per LS-RNA; loop of double-stranded RNA with three K-turn motifs
Description: as §1

L7Ae [5] = target: T2, L7Ae; assay: HS-AFM, triangular structure with L7Ae; conditions: tags: expressed from pET-28(+) (Novagen) in E. coli Rosetta; chain copies: 3 per LS-RNA; loop with three K-turn motifs and a GFP siRNA duplex at each side
Description: Subsequently, the Tri-RNPs were observed by […]. […] The cantilever was set at a resonance frequency of 400-1000 kHz and at a spring constant of 0.1-0.2 N/m. A probe was deposited on the cantilever by electron beam. The mica surface was coated with 0.1% APTES, and thereafter, a 50 nM sample that had been dissolved in an RNP-binding solvent and an AFM observation solvent (20 mM Tris-HCl (pH7.6) and 10 mM MgCl2) was left at rest on the mica. The image was analyzed using software such as Image J and WSxM.
Specifically, five RNAs were hybridized with S-26, L-26-1 (SEQ ID NO: 29), L-26-2 (SEQ ID NO: 30), L-26-3 (SEQ ID NO: 31), and antisense-GFP (SEQ ID NO: 32) in the same manner as described above, such that L-26 had siRNA for GFP at the three sides thereof, thereby producing LS-26-siGFP. Subsequently, LS-26-siGFP was mixed with L7Ae to produce Tri-26-siGFP having a triangular structure, and the structure of the Tri-26-siGFP was then confirmed by HS-AFM. […] As given above, a triangular structure (Tri-26-siGFP) having a structure containing three double strands having siRNA function could be constructed.

T1 sequence (O29494 whole entry, one chain of several): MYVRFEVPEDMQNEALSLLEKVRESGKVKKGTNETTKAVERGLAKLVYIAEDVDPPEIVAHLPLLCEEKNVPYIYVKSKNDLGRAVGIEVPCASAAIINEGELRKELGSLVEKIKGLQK
T2 sequence (O29494 whole entry, one chain of several): as above

| Binder | binding result (L7Ae-Affibody (L7Ae-AFB) [1]) | binding result (L7Ae [2]) | binding result (L7Ae-Affibody (L7Ae-AFB) [3]) | binding result (L7Ae [4]) | binding result (L7Ae [5]) |
| --- | --- | --- | --- | --- | --- |
| B1 | binds | binds | – | – | – |
| B2 | – | – | binds | binds | – |
| B3 | binds | – | – | binds | – |
| B4 | – | – | – | – | binds |
